In patent publication US20150098945A1 (Daiichi Sankyo, published 2015):

Target: T1, human ROBO2 (pCI-hROBO2-transfected HEK293 cells) (human)
T1 chain: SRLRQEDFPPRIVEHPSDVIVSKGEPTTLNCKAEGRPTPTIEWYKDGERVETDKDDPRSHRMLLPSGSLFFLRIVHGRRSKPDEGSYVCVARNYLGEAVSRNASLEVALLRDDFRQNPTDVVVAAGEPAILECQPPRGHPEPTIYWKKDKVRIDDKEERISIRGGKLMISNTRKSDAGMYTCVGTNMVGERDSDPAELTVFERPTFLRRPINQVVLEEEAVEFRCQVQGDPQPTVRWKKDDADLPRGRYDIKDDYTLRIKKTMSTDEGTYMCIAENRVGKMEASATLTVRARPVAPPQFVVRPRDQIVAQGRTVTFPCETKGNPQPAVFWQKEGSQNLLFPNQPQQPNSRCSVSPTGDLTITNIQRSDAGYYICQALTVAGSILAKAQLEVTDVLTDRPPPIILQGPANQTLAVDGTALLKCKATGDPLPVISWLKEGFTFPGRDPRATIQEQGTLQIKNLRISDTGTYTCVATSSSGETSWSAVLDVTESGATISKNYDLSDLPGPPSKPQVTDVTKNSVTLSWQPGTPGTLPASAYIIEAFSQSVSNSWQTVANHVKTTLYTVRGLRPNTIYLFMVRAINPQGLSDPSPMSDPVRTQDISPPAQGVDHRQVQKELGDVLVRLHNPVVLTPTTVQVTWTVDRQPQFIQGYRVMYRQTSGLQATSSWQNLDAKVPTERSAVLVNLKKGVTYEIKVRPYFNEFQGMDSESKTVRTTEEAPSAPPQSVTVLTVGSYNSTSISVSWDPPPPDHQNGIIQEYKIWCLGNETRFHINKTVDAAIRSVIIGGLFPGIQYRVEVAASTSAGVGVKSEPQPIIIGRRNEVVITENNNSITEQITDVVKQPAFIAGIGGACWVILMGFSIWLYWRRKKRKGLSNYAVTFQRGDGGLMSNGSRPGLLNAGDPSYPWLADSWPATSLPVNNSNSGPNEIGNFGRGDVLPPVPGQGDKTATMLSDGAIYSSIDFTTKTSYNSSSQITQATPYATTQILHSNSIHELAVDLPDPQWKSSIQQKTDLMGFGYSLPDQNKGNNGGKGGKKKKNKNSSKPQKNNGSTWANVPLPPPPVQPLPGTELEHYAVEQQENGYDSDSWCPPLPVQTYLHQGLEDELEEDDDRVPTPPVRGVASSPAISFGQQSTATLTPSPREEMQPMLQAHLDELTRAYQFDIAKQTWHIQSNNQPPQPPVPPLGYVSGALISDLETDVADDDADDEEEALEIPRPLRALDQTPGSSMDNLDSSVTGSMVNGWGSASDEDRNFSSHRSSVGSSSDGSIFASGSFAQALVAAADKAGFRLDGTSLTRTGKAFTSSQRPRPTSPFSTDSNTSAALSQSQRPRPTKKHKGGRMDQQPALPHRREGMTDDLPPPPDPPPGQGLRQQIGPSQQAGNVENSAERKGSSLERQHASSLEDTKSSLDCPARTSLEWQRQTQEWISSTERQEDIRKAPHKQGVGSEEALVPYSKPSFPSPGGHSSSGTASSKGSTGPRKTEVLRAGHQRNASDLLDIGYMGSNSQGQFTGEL
Experiment: flow cytometry, HEK293 cells transfected with pCI-hROBO2, anti-mouse IgG FITC; control histogram IgG
Protocol: HEK293 cells were inoculated at a concentration of 1.2×10⁶ cells/dish or 1.5×10⁶ cells/dish to a 60-mm dish (manufactured by Corning Inc.) and cultured overnight in a DMEM medium containing 10% FBS at 37° C. under 5% CO₂ conditions. On the next day, the HEK293 cells were transfected with pCI-hROBO4, pCI-FLAG-hROBO1, pCI-hROBO2, or pCI-hROBO3 using FuGENE6 Transfection Reagent and further cultured overnight at 37° C. under 5% CO₂ conditions. On the next day, the expression vector-transfected cells were treated with TrypLE Express (manufactured by Life Technologies Corp.), washed with PBS containing 5% FBS, and then suspended in PBS containing 5% FBS. The obtained cell suspension was used in flow cytometry analysis.
Each cell suspension prepared in 4)-4-1 was centrifuged, and the supernatant was removed. […] Data was analyzed using Flowjo. The histogram of FITC fluorescence intensity was prepared. The antibody was determined to bind in a specific manner when the histogram of MAb1 was shifted to a stronger fluorescence intensity region compared with the histogram of the negative control Mouse IgG1 or Mouse IgG2a. […]

binding result: no binding (tested: 10 µg/mL)
B1: anti-ROBO4 mouse monoclonal antibody MAb1 (antibody, mouse IgG1, V domains shown)
VH: EVQLVESGGGLVKPGGSLKLSCAASGFTFSTYAMSWVRQTPEKRLEWVATISNGGTYTYYPDSVKGRFTISRDNAENTLYLQMSSLRSEDTAMYFCARLIYYDYLDYWGHGTTLTVSS
VL: DAVMTQTPLSLPVSLGDQASISCRSSQSLENSNGNTYLNWYFQKPGQSPQLLIYRVSNRFSGVLDRFSGSGSGTDFTLKISRVEAEDFGVYFCLQVTHVPWTFGGGTKLEIKR
notes: Mouse IgG1 (gamma1), kappa light chain, purified from hybridoma supernatant; also called parent antibody MAb1
